Experimental data reported in PMC11093611.

Biological target: T1, rCf48 (recombinant Flag-Cf48 micropeptide) (mouse, UniProt Q3UR78 29-90)
T1 sequence: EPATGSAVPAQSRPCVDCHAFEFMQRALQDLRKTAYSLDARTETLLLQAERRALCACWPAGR
Assay: EMSA; Thermo LightShift Chemiluminescent RNA EMSA kit (20158); buffer, salt, pH and temperature not given in the material
Settings: protein: recombinant; tags: FLAG (Fc tag removed with enterokinase); label: biotin

B1: Acta2 mRNA 3'-most 132 nt WT probe (ssRNA)
RNA: GGUGACCAGAUAGGUAAAAAACAAUUUUACGUGUAUUUAAAAUUUGGCAAGUAAUAUGGUUUUAUUAAAAUCACAUCUUUUGUAUUAAAGCAUACACACGUGCAUGGAUAUGCAUGCGUGACUUUUAACUUG
  binding result: binds

B2: Serpine1 mRNA 3'-most 134 nt WT probe (ssRNA)
RNA: CCAAAUGUGGGGUCACAUGGUCUUGAAUUUUGUGGGGUACAUAUGCCUUUGUUUGUUUGUUUUCACUUUUGAUAUAUAAACAGGUAAAUGUGUUUUUAAAAAAUAAUAAAAAUAGAGAAUAUGCAGACAAAAAAA
  binding result: binds
